Results published in patent US20230212319A1, “NOVEL ANTIGEN BINDING DOMAINS AND SYNTHETIC ANTIGEN RECEPTORS INCORPORATING THE SAME” (University of Southern California, priority 2020, published 2023).

B1: 22223 (protein)
chain: MALPVTALLLPLALLLHAARPDIQMTQSPSSLSASVGDRVTITCKASDHINNWLAWYQQKPGQAPKLLIYGATTLETGVPSRFSGSGSGTDYTLTISSLQPEDFATYYCQQSWNTPWTFGQGTKLEIKRLEDLKNVFPPEVAVFEPSEAEISHTQKATLVCLATGFYPDHVELSWWVNGKEVHSGVCTDPQPLKEQPALNDSRYCLSSRLRVSATFWQNPRNHFRCQVQFYGLSENDEWTQDRAKPVTQIVSAEAWGRADCGFTSESYQQGVLSATILYEILLGKATLYAVLVSALVLMAMVKRKDSRGRAKRSGSGATNFSLLKQAGDVEENPGPTSATMDWIWRILFLVGAATGAHSGPQLGPYELWELSHGSGPLGIAGIFEQVQLQQPGAELVKPGASVKMSCKASGYAFSSYWINWMKQKPGQGLEWIGQIYPGDGDTNYNGKFKGRATLTADTSSSTAYMQLSSLTSEDSAVYFCARSITTVVGCAMDYWGQGTSVTVSSTRIQNPDPAVYQLRDSKSSDKSVCLFTDFDSQTNVSQSKDSDVYITDKCVLDMRSMDFKSNSAVAWSNKSDFACANAFNNSIIPEDTFFPSPESSCDVKLVEKSFETDTNLNFQNLSVIGFRILLLKVAGFNLLMTLRLWSSRAKRSGSGVKQTLNFDLLKLAGDVESNPGPSRGHMTEYKPTVRLATRDDVPRAVRTLAAAFADYPATRHTVDPDRHIERVTELQELFLTRVGLDIGKVWVADDGAAVAVWTTPESVEAGAVFAEIGPRMAELSGSRLAAQQQMEGLLAPHRPKEPAWFLATVGVSPDHQGKGLGSAVVLPGVEAAERAGVPAFLETSAPRNLPFYERLGFTVTADVEVPEGPRTWCMTRKPGA
B2: 22228 (protein)
chain: MALPVTALLLPLALLLHAARPDIQMTQSPSSLSASVGDRVTITCKASDHINNWLAWYQQKPGQAPKLLIYGATTLETGVPSRFSGSGSGTDYTLTISSLQPEDFATYYCQQSWNTPWTFGQGTKLEIKRLEDLKNVFPPEVAVFEPSEAEISHTQKATLVCLATGFYPDHVELSWWVNGKEVHSGVCTDPQPLKEQPALNDSRYCLSSRLRVSATFWQNPRNHFRCQVQFYGLSENDEWTQDRAKPVTQIVSAEAWGRADCGFTSESYQQGVLSATILYEILLGKATLYAVLVSALVLMAMVKRKDSRGRAKRSGSGATNFSLLKQAGDVEENPGPTSATMDWIWRILFLVGAATGAHSGPQDKLTQWPKWLEGSGGGGSGGGGSGGGGSFEQVQLQQPGAELVKPGASVKMSCKASGYAFSSYWINWMKQKPGQGLEWIGQIYPGDGDTNYNGKFKGRATLTADTSSSTAYMQLSSLTSEDSAVYFCARSITTVVGCAMDYWGQGTSVTVSSTRIQNPDPAVYQLRDSKSSDKSVCLFTDFDSQTNVSQSKDSDVYITDKCVLDMRSMDFKSNSAVAWSNKSDFACANAFNNSIIPEDTFFPSPESSCDVKLVEKSFETDTNLNFQNLSVIGFRILLLKVAGFNLLMTLRLWSSRAKRSGSGVKQTLNFDLLKLAGDVESNPGPSRGHMTEYKPTVRLATRDDVPRAVRTLAAAFADYPATRHTVDPDRHIERVTELQELFLTRVGLDIGKVWVADDGAAVAVWTTPESVEAGAVFAEIGPRMAELSGSRLAAQQQMEGLLAPHRPKEPAWFLATVGVSPDHQGKGLGSAVVLPGVEAAERAGVPAFLETSAPRNLPFYERLGFTVTADVEVPEGPRTWCMTRKPGA
B3: 22234 (protein)
chain: MALPVTALLLPLALLLHAARPDIQMTQSPSSLSASVGDRVTITCKASDHINNWLAWYQQKPGQAPKLLIYGATTLETGVPSRFSGSGSGTDYTLTISSLQPEDFATYYCQQSWNTPWTFGQGTKLEIKRLEDLKNVFPPEVAVFEPSEAEISHTQKATLVCLATGFYPDHVELSWWVNGKEVHSGVCTDPQPLKEQPALNDSRYCLSSRLRVSATFWQNPRNHFRCQVQFYGLSENDEWTQDRAKPVTQIVSAEAWGRADCGFTSESYQQGVLSATILYEILLGKATLYAVLVSALVLMAMVKRKDSRGRAKRSGSGATNFSLLKQAGDVEENPGPTSATMDWIWRILFLVGAATGAHSQLGPYELWELSHGSGSGSGSQLGPYELWELSHSGGGSGQLGPYELWELSHGSSGPGSGSCQFDLSTRRLKCGSGSCQFDLSTRRLKCGSGGGGSGGGGSGGGGSFEQVQLQQPGAELVKPGASVKMSCKASGYAFSSYWINWMKQKPGQGLEWIGQIYPGDGDTNYNGKFKGRATLTADTSSSTAYMQLSSLTSEDSAVYFCARSITTVVGCAMDYWGQGTSVTVSSTRIQNPDPAVYQLRDSKSSDKSVCLFTDFDSQTNVSQSKDSDVYITDKCVLDMRSMDFKSNSAVAWSNKSDFACANAFNNSIIPEDTFFPSPESSCDVKLVEKSFETDTNLNFQNLSVIGFRILLLKVAGFNLLMTLRLWSSRAKRSGSGVKQTLNFDLLKLAGDVESNPGPSRGHMTEYKPTVRLATRDDVPRAVRTLAAAFADYPATRHTVDPDRHIERVTELQELFLTRVGLDIGKVWVADDGAAVAVWTTPESVEAGAVFAEIGPRMAELSGSRLAAQQQMEGLLAPHRPKEPAWFLATVGVSPDHQGKGLGSAVVLPGVEAAERAGVPAFLETSAPRNLPFYERLGFTVTADVEVPEGPRTWCMTRKPGA
B4: 22222 (protein)
chain: MALPVTALLLPLALLLHAARPACPQLGPYELWELSHGTGAVVRGAEFDIQMTQSPSSLSASVGDRVTITCKASDHINNWLAWYQQKPGQAPKLLIYGATTLETGVPSRFSGSGSGTDYTLTISSLQPEDFATYYCQQSWNTPWTFGQGTKLEIKRLEDLKNVFPPEVAVFEPSKAEIAHTQKATLVCLATGFYPDHVELSWWVNGKEVHSGVCTDPQPLKEQPALNDSRYCLSSRLRVSATFWQNPRNHFRCQVQFYGLSENDEWTQDRAKPVTQIVSAEAWGRADCGITSASYHQGVLSATILYEILLGKATLYAVLVSALVLMAMVKRKDSRGRAKRSGSGATNFSLLKQAGDVEENPGPTSATMDWIWRILFLVGAATGAHSGPQVQLQESGGGLAQAGGSLRLSCAASGRTFSMGWFRQAPGKEREFVAAITYSGGSPYYASSVRGRFTISRDNAKNTVYLQMNSLKPEDTAVYYCAANPTYGSDWNAENWGQGTQVTVSSGSGGGGSGGGGSGGGGSFEQVQLQQPGAELVKPGASVKMSCKASGYAFSSYWINWMKQKPGQGLEWIGQIYPGDGDTNYNGKFKGRATLTADTSSSTAYMQLSSLTSEDSAVYFCARSITTVVGCAMDYWGQGTSVTVSSTRIQNPDPAVYQLRDSKSSDKSVCLFTDFDSQTNVSQSKDSDVYITDKCVLDMRSMDFKSNSAVAWSNKSDFACANAFNNSIIPEDTFFPSSDVPCDVKLVEKSFETDTNLNFQNLSVIGFRILLLKVAGFNLLMTLRLWSSRAKRSGSGVKQTLNFDLLKLAGDVESNPGPSRGHMTEYKPTVRLATRDDVPRAVRTLAAAFADYPATRHTVDPDRHIERVTELQELFLTRVGLDIGKVWVADDGAAVAVWTTPESVEAGAVFAEIGPRMAELSGSRLAAQQQMEGLLAPHRPKEPAWFLATVGVSPDHQGKGLGSAVVLPGVEAAERAGVPAFLETSAPRNLPFYERLGFTVTADVEVPEGPRTWCMTRKPGA
B5: 22230 (protein)
chain: MALPVTALLLPLALLLHAARPDIQMTQSPSSLSASVGDRVTITCKASDHINNWLAWYQQKPGQAPKLLIYGATTLETGVPSRFSGSGSGTDYTLTISSLQPEDFATYYCQQSWNTPWTFGQGTKLEIKRLEDLKNVFPPEVAVFEPSEAEISHTQKATLVCLATGFYPDHVELSWWVNGKEVHSGVCTDPQPLKEQPALNDSRYCLSSRLRVSATFWQNPRNHFRCQVQFYGLSENDEWTQDRAKPVTQIVSAEAWGRADCGFTSESYQQGVLSATILYEILLGKATLYAVLVSALVLMAMVKRKDSRGRAKRSGSGATNFSLLKQAGDVEENPGPTSATMDWIWRILFLVGAATGAHSGPQDKLTQWPKWLEGGGGSELPTQGTFSNVSTNVSGGGGQDKLTQWPKWLEGGGGSELPTQGTFSNVSTNVSGSGGGGSGGGGSGGGGSFEQVQLQQPGAELVKPGASVKMSCKASGYAFSSYWINWMKQKPGQGLEWIGQIYPGDGDTNYNGKFKGRATLTADTSSSTAYMQLSSLTSEDSAVYFCARSITTVVGCAMDYWGQGTSVTVSSTRIQNPDPAVYQLRDSKSSDKSVCLFTDFDSQTNVSQSKDSDVYITDKCVLDMRSMDFKSNSAVAWSNKSDFACANAFNNSIIPEDTFFPSPESSCDVKLVEKSFETDTNLNFQNLSVIGFRILLLKVAGFNLLMTLRLWSSRAKRSGSGVKQTLNFDLLKLAGDVESNPGPSRGHMTEYKPTVRLATRDDVPRAVRTLAAAFADYPATRHTVDPDRHIERVTELQELFLTRVGLDIGKVWVADDGAAVAVWTTPESVEAGAVFAEIGPRMAELSGSRLAAQQQMEGLLAPHRPKEPAWFLATVGVSPDHQGKGLGSAVVLPGVEAAERAGVPAFLETSAPRNLPFYERLGFTVTADVEVPEGPRTWCMTRKPGA
B6: 22227 (protein)
chain: MALPVTALLLPLALLLHAARPDIQMTQSPSSLSASVGDRVTITCKASDHINNWLAWYQQKPGQAPKLLIYGATTLETGVPSRFSGSGSGTDYTLTISSLQPEDFATYYCQQSWNTPWTFGQGTKLEIKRLEDLKNVFPPEVAVFEPSEAEISHTQKATLVCLATGFYPDHVELSWWVNGKEVHSGVCTDPQPLKEQPALNDSRYCLSSRLRVSATFWQNPRNHFRCQVQFYGLSENDEWTQDRAKPVTQIVSAEAWGRADCGFTSESYQQGVLSATILYEILLGKATLYAVLVSALVLMAMVKRKDSRGRAKRSGSGATNFSLLKQAGDVEENPGPTSATMDWIWRILFLVGAATGAHSGPQLGPYELWELSHGSALRRLLGLFGFEQVQLQQPGAELVKPGASVKMSCKASGYAFSSYWINWMKQKPGQGLEWIGQIYPGDGDTNYNGKFKGRATLTADTSSSTAYMQLSSLTSEDSAVYFCARSITTVVGCAMDYWGQGTSVTVSSTRIQNPDPAVYQLRDSKSSDKSVCLFTDFDSQTNVSQSKDSDVYITDKCVLDMRSMDFKSNSAVAWSNKSDFACANAFNNSIIPEDTFFPSPESSCDVKLVEKSFETDTNLNFQNLSVIGFRILLLKVAGFNLLMTLRLWSSRAKRSGSGVKQTLNFDLLKLAGDVESNPGPSRGHMTEYKPTVRLATRDDVPRAVRTLAAAFADYPATRHTVDPDRHIERVTELQELFLTRVGLDIGKVWVADDGAAVAVWTTPESVEAGAVFAEIGPRMAELSGSRLAAQQQMEGLLAPHRPKEPAWFLATVGVSPDHQGKGLGSAVVLPGVEAAERAGVPAFLETSAPRNLPFYERLGFTVTADVEVPEGPRTWCMTRKPGA

system: RAJI cells; test: JNG assay, co-culture with RAJI cells; format: cell-based; details: JNG cells expressing construct, co-culture with Raji
In short: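 Read-out is NFAT-driven GFP measured by flow cytometry after ~4–18 h co-culture of SAR-expressing JNG cells with target cells (E:T about 1:2). SARs were introduced by lentiviral spinfection and selected with puromycin or blasticidin when possible; scores (+/- to 5+ ≈ 5–50% GFP+) are relative to parental JNG cells.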

Row | Molecule | NFAT-GFP ASSAY: Raji
1 | B1 | Raji (3+) (refer to approximately 5%, 10%, 20%, 30%, 40% and 50% GFP positive cells)
2 | B2 | Raji (2+) (refer to approximately 5%, 10%, 20%, 30%, 40% and 50% GFP positive cells)
3 | B3 | Raji (+/-) (refer to approximately 5%, 10%, 20%, 30%, 40% and 50% GFP positive cells)
4 | B4 | Raji (2+) (refer to approximately 5%, 10%, 20%, 30%, 40% and 50% GFP positive cells)
5 | B5 | 4+ (refer to approximately 5%, 10%, 20%, 30%, 40% and 50% GFP positive cells)
6 | B6 | Raji (4+) (refer to approximately 5%, 10%, 20%, 30%, 40% and 50% GFP positive cells)
